T1: IL-4Rα on human primary cells (primary B cells, whole blood B and T cells, PBMCs) (human, UniProt P24394 26-825)
T1 sequence (looked up): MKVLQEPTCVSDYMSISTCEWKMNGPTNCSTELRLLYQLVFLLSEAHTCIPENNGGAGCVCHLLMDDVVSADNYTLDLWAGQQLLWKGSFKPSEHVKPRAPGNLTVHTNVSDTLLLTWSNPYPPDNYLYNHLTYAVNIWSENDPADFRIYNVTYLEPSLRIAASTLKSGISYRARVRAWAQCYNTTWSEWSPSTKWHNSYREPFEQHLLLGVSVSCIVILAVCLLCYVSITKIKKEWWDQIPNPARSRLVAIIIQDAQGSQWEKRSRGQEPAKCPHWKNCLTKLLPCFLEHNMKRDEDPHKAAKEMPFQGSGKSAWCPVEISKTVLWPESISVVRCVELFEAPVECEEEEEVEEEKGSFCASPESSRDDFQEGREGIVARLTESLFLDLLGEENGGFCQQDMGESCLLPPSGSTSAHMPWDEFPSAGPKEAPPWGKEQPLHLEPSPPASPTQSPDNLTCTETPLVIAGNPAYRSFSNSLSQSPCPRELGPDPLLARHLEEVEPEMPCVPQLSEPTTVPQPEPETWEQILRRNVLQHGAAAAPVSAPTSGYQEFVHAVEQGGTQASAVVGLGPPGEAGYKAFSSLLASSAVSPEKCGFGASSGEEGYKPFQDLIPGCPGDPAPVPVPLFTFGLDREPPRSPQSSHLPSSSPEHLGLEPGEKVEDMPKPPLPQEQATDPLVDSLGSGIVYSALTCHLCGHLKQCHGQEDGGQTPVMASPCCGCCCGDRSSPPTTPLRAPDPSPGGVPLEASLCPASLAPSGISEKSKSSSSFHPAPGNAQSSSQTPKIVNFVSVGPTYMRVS

T2: human IL-4Rα (interleukin 4 receptor subunit alpha) (human, UniProt P24394 26-232, limits assumed)
T2 sequence (looked up): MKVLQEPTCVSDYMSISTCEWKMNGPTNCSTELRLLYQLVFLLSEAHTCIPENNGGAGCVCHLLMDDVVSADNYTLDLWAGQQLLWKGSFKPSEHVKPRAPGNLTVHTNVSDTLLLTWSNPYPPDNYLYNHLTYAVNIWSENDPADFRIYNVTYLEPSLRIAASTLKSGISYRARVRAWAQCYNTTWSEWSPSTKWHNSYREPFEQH

B1: Reference Antibody (antibody, human IgG4 S228P, kappa, V domains shown)
VH: EVQLVESGGGLEQPGGSLRLSCAGSGFTFRDYAMTWVRQAPGKGLEWVSSISGSGGNTYYADSVKGRFTISRDNSKNTLYLQMNSLRAEDTAVYYCAKDRLSITIRPRYYGLDVWGQGTTVTVSS
VL: DIVMTQSPLSLPVTPGEPASISCRSSQSLLYSIGYNYLDWYLQKSGQSPQLLIYLGSNRASGVPDRFSGSGSGTDFTLKISRVEAEDVGFYYCMQALQTPYTFGQGTKLEIKR
B2: AB-13b (antibody, human IgG4 S228P, kappa)
heavy: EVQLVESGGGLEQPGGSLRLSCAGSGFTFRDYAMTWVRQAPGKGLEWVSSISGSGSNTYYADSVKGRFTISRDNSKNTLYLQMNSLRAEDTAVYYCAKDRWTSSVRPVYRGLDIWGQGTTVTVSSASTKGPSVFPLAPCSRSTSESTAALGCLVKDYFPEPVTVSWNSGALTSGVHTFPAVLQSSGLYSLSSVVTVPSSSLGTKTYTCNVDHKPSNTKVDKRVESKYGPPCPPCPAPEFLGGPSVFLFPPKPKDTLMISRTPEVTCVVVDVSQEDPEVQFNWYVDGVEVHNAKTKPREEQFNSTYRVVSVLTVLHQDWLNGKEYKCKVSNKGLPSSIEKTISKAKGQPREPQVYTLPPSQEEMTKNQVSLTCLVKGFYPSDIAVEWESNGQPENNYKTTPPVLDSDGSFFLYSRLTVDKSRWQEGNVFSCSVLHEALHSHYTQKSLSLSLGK
light: DIVMTQSPLSLPVTPGEPASISCRSSQSLLYSHGYNYLDWYLQKSGQSPQLLIYLASNRASGVPDRFSGSGSGTDFTLKISRVEAEDVGFYYCMQSLYTPYTFGQGTKLEIKRTVAAPSVFIFPPSDEQLKSGTASVVCLLNNFYPREAKVQWKVDNALQSGNSQESVTEQDSKDSTYSLSSTLTLSKADYEKHKVYACEVTHQGLSSPVTKSFNRGEC
notes: hIgG4 LS variant, kappa
B3: AB-13a (antibody, human IgG4 S228P, kappa)
heavy: EVQLVESGGGLEQPGGSLRLSCAGSGFTFRDYAMTWVRQAPGKGLEWVSSISGSGSNTYYADSVKGRFTISRDNSKNTLYLQMNSLRAEDTAVYYCAKDRWTSSVRPVYRGLDIWGQGTTVTVSSASTKGPSVFPLAPCSRSTSESTAALGCLVKDYFPEPVTVSWNSGALTSGVHTFPAVLQSSGLYSLSSVVTVPSSSLGTKTYTCNVDHKPSNTKVDKRVESKYGPPCPPCPAPEFLGGPSVFLFPPKPKDTLYITREPEVTCVVVDVSQEDPEVQFNWYVDGVEVHNAKTKPREEQFNSTYRVVSVLTVLHQDWLNGKEYKCKVSNKGLPSSIEKTISKAKGQPREPQVYTLPPSQEEMTKNQVSLTCLVKGFYPSDIAVEWESNGQPENNYKTTPPVLDSDGSFFLYSRLTVDKSRWQEGNVFSCSVMHEALHNHYTQKSLSLSLGK
light: DIVMTQSPLSLPVTPGEPASISCRSSQSLLYSHGYNYLDWYLQKSGQSPQLLIYLASNRASGVPDRFSGSGSGTDFTLKISRVEAEDVGFYYCMQSLYTPYTFGQGTKLEIKRTVAAPSVFIFPPSDEQLKSGTASVVCLLNNFYPREAKVQWKVDNALQSGNSQESVTEQDSKDSTYSLSSTLTLSKADYEKHKVYACEVTHQGLSSPVTKSFNRGEC
notes: hIgG4 YTE variant, kappa
B4: AB-13d (antibody, human IgG1, kappa)
heavy: not shown
light: DIVMTQSPLSLPVTPGEPASISCRSSQSLLYSHGYNYLDWYLQKSGQSPQLLIYLASNRASGVPDRFSGSGSGTDFTLKISRVEAEDVGFYYCMQSLYTPYTFGQGTKLEIKRTVAAPSVFIFPPSDEQLKSGTASVVCLLNNFYPREAKVQWKVDNALQSGNSQESVTEQDSKDSTYSLSSTLTLSKADYEKHKVYACEVTHQGLSSPVTKSFNRGEC
notes: hIgG1, kappa
B5: AB-3c (antibody, human IgG4 S228P, kappa)
heavy chain: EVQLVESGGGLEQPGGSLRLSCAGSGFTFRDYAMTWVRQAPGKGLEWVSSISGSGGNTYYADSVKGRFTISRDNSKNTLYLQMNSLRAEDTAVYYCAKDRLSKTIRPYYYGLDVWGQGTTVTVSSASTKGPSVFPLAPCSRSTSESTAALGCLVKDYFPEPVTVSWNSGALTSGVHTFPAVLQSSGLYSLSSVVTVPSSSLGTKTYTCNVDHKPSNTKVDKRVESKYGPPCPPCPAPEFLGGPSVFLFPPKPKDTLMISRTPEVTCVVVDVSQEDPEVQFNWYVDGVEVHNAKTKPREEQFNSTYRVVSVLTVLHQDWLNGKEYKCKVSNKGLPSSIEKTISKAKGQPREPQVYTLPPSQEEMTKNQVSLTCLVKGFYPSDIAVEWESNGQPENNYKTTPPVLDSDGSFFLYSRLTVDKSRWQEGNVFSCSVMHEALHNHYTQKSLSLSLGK
light chain: DIVMTQSPLSLPVTPGEPASISCRSSQSLLYSTGYNYLDWYLQKSGQSPQLLIYLGSNRASGVPDRFSGSGSGTDFTLKISRVEAEDVGFYYCMQSLSTPYTFGQGTKLEIKRTVAAPSVFIFPPSDEQLKSGTASVVCLLNNFYPREAKVQWKVDNALQSGNSQESVTEQDSKDSTYSLSSTLTLSKADYEKHKVYACEVTHQGLSSPVTKSFNRGEC
notes: hIgG4 WT ('c')
B6: AB-2c (antibody, human IgG4 S228P, kappa, V domains shown)
VH: EVQLVESGGGLEQPGGSLRLSCAGSGFTFRDYAMTWVRQAPGKGLEWVSSISGSGSNTYYADSVKGRFTISRDNSKNTLYLQMNSLRAEDTAVYYCARDRLTAAVRPYYYGLDVWGQGTTVTVSS
VL: DIVMTQSPLSLPVTPGEPASISCRSSQSLDYSSGYNYLDWYLQKSGQSPQLLIYLASNRASGVPDRFSGSGSGTDFTLKISRVEAEDVGFYYCMQSLQTPYTFGQGTKLEIKR
notes: hIgG4 WT, kappa
B7: AB-4c (antibody, human IgG4 S228P, kappa)
heavy: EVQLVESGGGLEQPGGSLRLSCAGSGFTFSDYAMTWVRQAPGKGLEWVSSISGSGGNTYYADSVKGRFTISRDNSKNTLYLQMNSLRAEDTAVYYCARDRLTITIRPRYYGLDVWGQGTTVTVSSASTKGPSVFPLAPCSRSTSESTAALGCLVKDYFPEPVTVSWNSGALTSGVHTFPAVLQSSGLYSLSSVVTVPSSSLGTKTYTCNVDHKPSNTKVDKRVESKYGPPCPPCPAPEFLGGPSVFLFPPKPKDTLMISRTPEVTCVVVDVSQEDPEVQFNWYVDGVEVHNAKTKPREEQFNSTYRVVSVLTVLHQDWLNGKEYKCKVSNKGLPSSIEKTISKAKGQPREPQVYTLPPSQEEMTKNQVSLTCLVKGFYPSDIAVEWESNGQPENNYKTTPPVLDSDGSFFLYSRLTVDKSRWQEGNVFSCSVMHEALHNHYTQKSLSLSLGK
light: DIVMTQSPLSLPVTPGEPASISCRSSQSLLYSTGYNYLDWYLQKSGQSPQLLIYLASNRASGVPDRFSGSGSGTDFTLKISRVEAEDVGFYYCMQALSTPYTFGQGTKLEIKRTVAAPSVFIFPPSDEQLKSGTASVVCLLNNFYPREAKVQWKVDNALQSGNSQESVTEQDSKDSTYSLSSTLTLSKADYEKHKVYACEVTHQGLSSPVTKSFNRGEC
notes: hIgG4 WT, kappa
B8: AB-5c (antibody, human IgG4 S228P, kappa)
heavy: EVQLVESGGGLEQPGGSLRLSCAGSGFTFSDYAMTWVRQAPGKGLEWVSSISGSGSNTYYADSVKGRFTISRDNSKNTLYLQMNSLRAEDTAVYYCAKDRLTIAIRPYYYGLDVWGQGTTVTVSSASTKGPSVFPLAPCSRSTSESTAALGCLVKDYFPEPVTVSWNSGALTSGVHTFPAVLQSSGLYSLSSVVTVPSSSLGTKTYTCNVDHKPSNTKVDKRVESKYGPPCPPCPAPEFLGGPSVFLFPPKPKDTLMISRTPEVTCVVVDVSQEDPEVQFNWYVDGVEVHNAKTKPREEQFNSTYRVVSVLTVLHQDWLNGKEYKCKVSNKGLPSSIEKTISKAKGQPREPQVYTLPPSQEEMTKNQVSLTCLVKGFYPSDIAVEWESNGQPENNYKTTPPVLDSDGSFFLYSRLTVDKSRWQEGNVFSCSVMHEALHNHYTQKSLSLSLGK
light: DIVMTQSPLSLPVTPGEPASISCRSSQSLDYSIGYNYLDWYLQKSGQSPQLLIYLASNRASGVPDRFSGSGSGTDFTLKISRVEAEDVGFYYCMQALQTPYTFGQGTKLEIKRTVAAPSVFIFPPSDEQLKSGTASVVCLLNNFYPREAKVQWKVDNALQSGNSQESVTEQDSKDSTYSLSSTLTLSKADYEKHKVYACEVTHQGLSSPVTKSFNRGEC
notes: hIgG4 WT, kappa
B9: AB-6c (antibody, human IgG4 S228P, kappa)
heavy: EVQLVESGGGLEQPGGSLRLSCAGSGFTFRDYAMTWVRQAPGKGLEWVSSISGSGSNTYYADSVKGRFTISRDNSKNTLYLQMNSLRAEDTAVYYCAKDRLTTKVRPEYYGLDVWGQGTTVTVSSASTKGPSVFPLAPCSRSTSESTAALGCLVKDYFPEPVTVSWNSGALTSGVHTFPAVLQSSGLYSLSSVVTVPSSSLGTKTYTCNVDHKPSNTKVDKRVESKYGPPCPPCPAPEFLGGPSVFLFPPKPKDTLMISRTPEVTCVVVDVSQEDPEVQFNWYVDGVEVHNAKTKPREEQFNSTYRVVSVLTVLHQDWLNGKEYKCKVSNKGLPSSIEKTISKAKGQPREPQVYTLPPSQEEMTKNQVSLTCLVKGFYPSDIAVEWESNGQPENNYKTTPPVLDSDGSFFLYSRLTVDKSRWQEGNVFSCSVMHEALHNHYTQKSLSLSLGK
light: DIVMTQSPLSLPVTPGEPASISCRSSQSLLYSIGYNYLDWYLQKSGQSPQLLIYLASNRASGVPDRFSGSGSGTDFTLKISRVEAEDVGFYYCMQSLQTPYTFGQGTKLEIKRTVAAPSVFIFPPSDEQLKSGTASVVCLLNNFYPREAKVQWKVDNALQSGNSQESVTEQDSKDSTYSLSSTLTLSKADYEKHKVYACEVTHQGLSSPVTKSFNRGEC
notes: hIgG4 WT, kappa
B10: AB-7c (antibody, human IgG4 S228P, kappa, V domains shown)
VH: EVQLVESGGGLEQPGGSLRLSCAGSGFTFRDYAMTWVRQAPGKGLEWVSSISGSGSTTYYADSVKGRFTISRDNSKNTLYLQMNSLRAEDTAVYYCAKDRLTASVRPIYVGLDVWGQGTTVTVSS
VL: DIVMTQSPLSLPVTPGEPASISCRSSQSLLYSEGYNYLDWYLQKSGQSPQLLIYLASNRASGVPDRFSGSGSGTDFTLKISRVEAEDVGFYYCMQTLKTPYTFGQGTKLEIKR
notes: hIgG4 WT, kappa
B11: AB-8c (antibody, human IgG4 S228P, kappa, V domains shown)
VH: EVQLVESGGGLEQPGGSLRLSCAGSGFTFRDYAMTWVRQAPGKGLEWVSSISGSGSNTYYADSVKGRFTISRDNSKNTLYLQMNSLRAEDTAVYYCAKDRLTASVRPNYYGLDVWGQGTTVTVSS
VL: DIVMTQSPLSLPVTPGEPASISCRSSQSLLYSEGYNYLDWYLQKSGQSPQLLIYLASNRASGVPDRFSGSGSGTDFTLKISRVEAEDVGFYYCMQSLTTPYTFGQGTKLEIKR
notes: hIgG4 WT, kappa
B12: AB-11c (antibody, human IgG4 S228P, kappa, V domains shown)
VH: EVQLVESGGGLEQPGGSLRLSCAGSGFTFRDYAMTWVRQAPGKGLEWVSSISGSGTNTYYADSVKGRFTISRDNSKNTLYLQMNSLRAEDTAVYYCAKDRLSVSTRPKYYGLDVWGQGTTVTVSS
VL: DIVMTQSPLSLPVTPGEPASISCRSSQSLDYSYGYNYLDWYLQKSGQSPQLLIYLASNRASGVPDRFSGSGSGTDFTLKISRVEAEDVGFYYCMQSLHTPYTFGQGTKLEIKR
notes: hIgG4 WT, kappa
B13: AB-12c (antibody, human IgG4 S228P, kappa)
heavy: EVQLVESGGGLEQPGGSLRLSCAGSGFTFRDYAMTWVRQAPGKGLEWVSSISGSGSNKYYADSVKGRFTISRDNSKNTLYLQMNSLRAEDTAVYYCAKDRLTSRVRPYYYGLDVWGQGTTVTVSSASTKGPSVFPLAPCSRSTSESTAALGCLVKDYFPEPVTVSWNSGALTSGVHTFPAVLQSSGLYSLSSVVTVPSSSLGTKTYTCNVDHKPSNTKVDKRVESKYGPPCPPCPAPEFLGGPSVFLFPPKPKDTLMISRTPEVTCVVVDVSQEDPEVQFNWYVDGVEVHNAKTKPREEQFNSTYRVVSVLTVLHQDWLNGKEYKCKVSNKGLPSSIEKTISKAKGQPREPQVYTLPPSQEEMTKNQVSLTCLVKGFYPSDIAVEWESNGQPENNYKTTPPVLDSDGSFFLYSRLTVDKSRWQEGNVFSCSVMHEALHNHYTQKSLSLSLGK
light: DIVMTQSPLSLPVTPGEPASISCRSSQSLLYSQGYNYLDWYLQKSGQSPQLLIYLASNRASGVPDRFSGSGSGTDFTLKISRVEAEDVGFYYCMQSLFTPYTFGQGTKLEIKRTVAAPSVFIFPPSDEQLKSGTASVVCLLNNFYPREAKVQWKVDNALQSGNSQESVTEQDSKDSTYSLSSTLTLSKADYEKHKVYACEVTHQGLSSPVTKSFNRGEC
notes: hIgG4 WT, kappa
B14: AB-10c (antibody, human IgG4 S228P, kappa, V domains shown)
VH: EVQLVESGGGLEQPGGSLRLSCAGSGFTFRDYAMTWVRQAPGKGLEWVSSISGSGDKTYYADSVKGRFTISRDNSKNTLYLQMNSLRAEDTAVYYCARDRLSSSARPVYVGLDVWGQGTTVTVSS
VL: DIVMTQSPLSLPVTPGEPASISCRSSQSLLYSVGKNYLDWYLQKSGQSPQLLIYLASNRASGVPDRFSGSGSGTDFTLKISRVEAEDVGFYYCMQDLFHPYTFGQGTKLEIKR
notes: hIgG4 WT, kappa

Target: T1, IL-4Rα on human primary cells (primary …)
Assay: cell-based or functional assay

B1 and B2 are within 1.5-fold of each other in “Inhibition of CD23 Expression by Primary B cells (IC50), Donor 13” value: 22 nM for the first, 30.1 nM for the second.

B3 was tested, and the “Inhibition of CD23 Expression by Primary B cells (IC50), Donor 13” value was 27.5 nM.

Compared with B1, B2 is 2.9-fold higher in “Inhibition of CD23 Expression by Primary B cells (IC50), Donor 52” value: 11.9 nM for the first, 34.4 nM for the second.

For B3, the “Inhibition of CD23 Expression by Primary B cells (IC50), Donor 52” value was 17.8 nM.

Compared with B1, B2 is 2-fold higher in “Inhibition of CD23 Expression by Primary B cells (IC50), Donor 53” value: 18 nM for the first, 35.9 nM for the second.

With B3 the “Inhibition of CD23 Expression by Primary B cells (IC50), Donor 53” value was 40.6 nM.

Going from B1 to B2, the “Inhibition of CD23 Expression by Primary B cells (IC50), Donor 56” value rises from 29.8 nM to 54.2 nM (1.8-fold).

For B3, the “Inhibition of CD23 Expression by Primary B cells (IC50), Donor 56” value was 54.4 nM.

Target: T2, human IL-4Rα (interleukin 4 receptor …)
Assay: SPR, Biacore 8K+ multi-cycle capture kinetics; antibody captured on goat anti-human polyclonal surface, human IL-4Rα as analyte, 25 C, 1:1 model

B2 and B3 are within 1.5-fold of each other in Kd: 0.0249 nM for the first, 0.0333 nM for the second.

B4 showed a Kd of 0.0326 nM.

B2 and B3 are within 1.5-fold of each other in koff: 2.19e-05 s⁻¹ for the first, 2.59e-05 s⁻¹ for the second.

With B4 the koff was 2.57e-05 s⁻¹.

B2 and B3 are within 1.5-fold of each other in kon: 881000 M⁻¹ s⁻¹ for the first, 778000 M⁻¹ s⁻¹ for the second.

B4 was tested, and the kon was 789000 M⁻¹ s⁻¹.

Target: T2, human IL-4Rα (interleukin 4 receptor …)
Assay: indirect ELISA on plate-coated recombinant human IL-4Rα (2 ug/mL), anti-human IgG Fc-HRP, A450

With B5 the “EC50 (read off the curve)” value was roughly 0.1 nM.

Target: T2, human IL-4Rα (interleukin 4 receptor …)
Assay: SPR, Carterra LSA non-regenerative capture kinetics; antibody captured on goat anti-human polyclonal lawn, human IL-4Rα as analyte, 25 C, 1:1 model; average ± SD of technical replicates

Going from B6 to B7, the Kd falls from 50.7 nM to 0.56 nM (91-fold). The second binds more tightly here.

Compared with B8, B9 is lower in Kd: 2.37 nM for the first, no more than 0.1 nM for the second. The second binds more tightly here.

First: B10
Second: B11
The Kd of the first is 2.8-fold lower: 0.3 nM for the first, 0.85 nM for the second. The first binds more tightly here.

Going from B12 to B13, the Kd falls from 0.83 nM to no more than 0.09 nM.

With B14 the Kd was 546 nM.
